Where a chain is given by its changes, count along the chain named.
B1: CoV2-YD-13 (VHH)
VHH: QVQLVESGGGLVQAGGSLRLSCAASGFTFDDYAIGWFRQAPGKEREGVSCISSSGGFTNYADSVKGRFTISSDNAKNTVYLQMNSLKPEDTAVYYCAVVVNGYGLDEWAYDYWGQGTQVTVS
B2: CoV2-YD-35 (VHH)
VHH: DVQLVESGGGLVQAGDSLRLSCTASGRTFTTNAMGWFRQAPGKEREFVAAISWSYGTTYYSDPVEGRFTISRSNAKNTVYLQMNSLKPDDTAVYYCTLRSRFNAAAWTTEAAFDYWGQGTQVTVS
B3: CoV2-YD-36 (VHH)
VHH: B2 VHH with D1Q, S52T
B4: CoV2-YD-37 (VHH)
VHH: B2 VHH with S54N, G56D
B5: CoV2-YD-38 (VHH)
VHH: B2 VHH with T23A, S54N, Y55S, E65K, S73D, D89G, A105Y, A111N
B6: Rescue-1 (VHH)
VHH: DVQLVESGGGLVQAGDSLRLSCTASGRTFTTNAMGWFRQAPGKEREFVAAITWSYGTTYYSDPVEGRFTISRDNAKNTVYLQMNSLKPEDTAVYYCFYERLAWDTSTYWGQGTQVTVS
B7: Rescue-2 (VHH)
VHH: B6 VHH with T52S, S54N, G56D
B8: Rescue-3 (VHH)
VHH: B6 VHH with T52S, S54N, Y55S, E65K
B9: CoV2-YD-5 (VHH)
VHH: QVQLVESGGGLVQAGGSLRLSCVASGTTISTYNLLWFRQAPGQQREWVASISSGGDTSYAGSVKGRFTISRDNTENTMYLQMNSLKPEDTAVYYCHGANAAHGMDYWGKGTQVTVS
B10: CoV2-YD-11 (VHH)
VHH: QVQLVESGGGLVQAGGSLRLSCVVSGTTFSRYDMGWYRQAPGKARETVATISRSGTTNYAYFVKGRFTITRDNAKNTVYLQMNSLKPEDTAVYYCYIFGLDYWGQGTQVTVS
B11: CoV2-YD-12 (VHH)
VHH: QVQLVESGGGLVQAGGSLRLSCAASGSTFSRLNILWWRQAAGKPREWVATSTDGGTRNYAAAVKGRFTISRDNAKNTVYLQMNSLKPEDTAVYYCYTPDYWGQGTQVTVS
B12: CoV2-YD-14 (VHH)
VHH: QVQLVESGGGLVQAGGSLRLSCSASGNTFSTYSLSWYRQAPGKQREFVAAISSGGSTSYANSVKGRFSISRDNAKKTMYLQMNSLKPEDTAVYYCYVVTTLMDYWGQGTQVTVS

What follows are binders tested against SARS-CoV-2 Spike receptor-binding domain (RBD), Delta variant (SARS-CoV-2, Delta (B.1.617.2; L452R, …, strain).

Binder | Kd [nM]
B1 | 45.4
B2 | 0.185
B3 | 0.022
B4 | 2.4
B5 | 0.256
B6 | 14.1
B7 | 11.2
B8 | 27.1

The binders below were run against SARS-CoV-2 Spike receptor-binding domain (RBD), B.1.1.529 (Omicron) variant (SARS-CoV-2, Omicron B.1.1.529 (BA.1 RBD), strain).

Binder | Kd [nM]
B9 | 0.66
B10 | 0.721
B11 | 0.416
B1 | 3.64
B12 | 0.655
B2 | 0.465
B3 | 0.263
B4 | 1.56
B5 | 2.82
B6 | 7.02
B7 | 27
B8 | 60.6

Source: paper PMC9884143 (The Journal of Biological Chemistry, 2023)
